Laboratory results reported in publication PMC6010298.
pKd: −log10 of the molar value.

Key:
[1] = target: His6-tagged ComE T128E (phosphomimetic) T128E; assay: Sandwich fluorescence-linked immunosorbent assay (FLISA); conditions: no added salt stated (50 mM Bis-Tris-Propane-HCl, 1 mM MgCl2), 1 mM MgCl2, pH 7.8 or the same buffer at pH 6.0
[2] = target: His6-tagged ComE T128A (non-phosphorylatable) T128A; assay: as above; conditions: no added salt stated (50 mM Bis-Tris-Propane-HCl, 1 mM MgCl2), 1 mM MgCl2, pH 7.8 or the same buffer at pH 6.0
[3] = target: His6-tagged ComE (response regulator ComE, wild type); assay: as above; conditions: no added salt stated (50 mM Bis-Tris-Propane-HCl, 1 mM MgCl2), 1 mM MgCl2, pH 7.8 or the same buffer at pH 6.0
[4] = test system: ComE T128A (Hisx6) (Streptococcus pneumoniae R801); assay: EMSA
[5] = test system: ComE D58E (Hisx6) (Streptococcus pneumoniae R801); assay: EMSA
[6] = test system: ComE T128E (Hisx6) (Streptococcus pneumoniae R801); assay: EMSA
[7] = test system: ComE wt (Hisx6) (Streptococcus pneumoniae R801); assay: EMSA
[8] = pH 6.0, 37°C (binding step, 1 h)
[9] = pH 7.8, 37°C (binding step, 1 h)

GST-StkP (serine/threonine protein kinase StkP, wild type)
K1/2 [1, 8]: 3200 ng
K1/2 [1, 9]: 900 ng
K1/2 [2, 8]: 100 ng
K1/2 [2, 9]: 110 ng
K1/2 [3, 8]: 94 ng
K1/2 [3, 9]: 330 ng

GST-StkP K42M (kinase-inactive) K42M
K1/2 [2, 8]: 100 ng
K1/2 [2, 9]: 80 ng
K1/2 [3, 8]: 55 ng
K1/2 [3, 9]: 140 ng

pcomC (comCDE promoter)
pKd [4]: 6.43
pKd [5]: 7.68
pKd [6]: 7.13
pKd [7]: 6.43
